Drawing on the supplement of paper PMC10724198, this text covers protein stability index for 116 sequences.

± gives the standard deviation of the averaged measurements.
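Also: PSI is a weighted mean of sequencing reads over stability bins, variants kept only with over 10 reads, mCherry proximal and sfGFP distal, peptide attached via GGGS linker.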

This data set concerns Saccharomyces cerevisiae. The experiment in a line: protein stability index of tFT-peptide fusion (C-terminal peptide) (PSI (0-1 scale)); higher = more stable (slower turnover). The note with it: genetic background: wild type; temperature: 30 C. The procedure: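 Multiplexed protein stability (MPS) profiling in S. cerevisiae. Random 12-aa peptides (tFT-X12 library) are fused to the C-terminus of a sfGFP-mCherry tandem fluorescent timer, after mCherry and a GGGS linker. Cells are FACS-sorted into 8 mCherry/sfGFP bins and deep-sequenced. The protein stability index (PSI) is the read-weighted bin average, scaled from 0 (unstable) to 1 (stable). Only peptides with >10 reads are reported; cells were grown at 30 °C in SC-His with glucose.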
ASEGRWVSVMGG had a protein stability index of 0.686 ± 0.05.
Next, ASFFTARMYIIF: 0.676 ± 0.031; ASFPPPPAAPPP: 0.673 ± 0.093; ASGGLVGAWVCV: 0.675 ± 0.0091.
Next, ASGSSVSFQVSF: 0.65 ± 0.069; ASIFPTLKLTYL: 0.713 ± 0.011.
For ASLHAPPLPPLC, the protein stability index amounted to 0.689 ± 0.02.
ASLLGSSPPPFI: the protein stability index was 0.696 ± 0.072.
Take ASLTNERCGASR: the protein stability index worked out at 0.679 ± 0.019.
Next, ASLVSPSFLGLV: 0.677 ± 0.084.
Next, ASNRVLRILLPR: 0.683 ± 0.05; ASQPNRIPSPPR: 0.71 ± 0.01.
The sequence ASRFSLPLLSLL registered a protein stability index of 0.71 ± 0.14.
In turn, ASRHGALIVLST came in with a protein stability index of 0.6701 ± 0.0053.
For the sequence ASRPPAPVPLPL, the protein stability index came to 0.686 ± 0.015.
Sequence ASRRSGSYTGYR registered a protein stability index of 0.672 ± 0.035.
On to ASSFVGLRWWAG, for which the protein stability index stood at 0.722 ± 0.012.
Regarding ASSPAPPSPTPP, the protein stability index worked out at 0.7 ± 0.05.
For the sequence ASSPPPRISAWL, the protein stability index is 0.7463 ± 0.0032.
Next, ASSRPQRKSGKR: 0.77 ± 0.0086.
ASSRQCSVEART: the protein stability index came out at 0.695 ± 0.0082.
For ASTFADASSALV, the protein stability index is 0.71 ± 0.014.
Take ASTLPTQPWPKG: the protein stability index worked out at 0.729 ± 0.11.
ASVCASCYTGGF yielded a protein stability index of 0.665 ± 0.03.
The sequence ATALETWGGAQG registered a protein stability index of 0.691 ± 0.015.
ATGLPSPALLHT: the protein stability index amounted to 0.687 ± 0.043.
Regarding ATLGRCYSSNGL, the protein stability index was 0.672 ± 0.031.
Consider ATPPPVRPSPIL, for which the protein stability index was found to be 0.677 ± 0.035.
Turning to ATPTSPSRPFLL, the protein stability index turned out to be 0.707 ± 0.086.
Turning to ATTVAIVFCRPA, the protein stability index was found to be 0.6165 ± 0.0039.
Regarding AVAERGRPPLKE, the protein stability index worked out at 0.6893 ± 0.0059.
The sequence AVAHLSCTSRFG displayed a protein stability index of 0.6944 ± 0.0037.
Take AVCCKYFGESLF: the protein stability index was determined as 0.864 ± 0.0098.
In turn, AVCWDVSRCLGL yielded a protein stability index of 0.7 ± 0.019.
Next, AVCWWGSVGGVG: 0.6966 ± 0.0069; AVGGWRAAGGGG: 0.7114 ± 0.0042; AVHASTLCSSIG: 0.6659 ± 0.0043.
The sequence AVLGDGCGVVGA yielded a protein stability index of 0.691 ± 0.072.
AVNLWSRFFDLP showed a protein stability index of 0.686 ± 0.052.
Next, AVRGYGCGGGTG: 0.6971 ± 0.0012.
Next, AVSHGLFALPFL: 0.703 ± 0.012.
The sequence AVTRLQPVMRAV showed a protein stability index of 0.6804 ± 0.0054.
Next, AVVGCGGGWWWA: 0.715 ± 0.13.
For the sequence AVVVWGGGWWWA, the protein stability index stood at 0.78 ± 0.15.
For AVWGWAFASVGG, the protein stability index turned out to be 0.735 ± 0.04.
In the case of AWESVGVWWGDS, the protein stability index was found to be 0.76 ± 0.043.
AWGELGSGVFGL yielded a protein stability index of 0.681 ± 0.032.
In turn, AWGRWGGGSRVE had a protein stability index of 0.636 ± 0.02.
AWGYFTDTRERY: the protein stability index was 0.687 ± 0.036.
AWQGRVEGGDGA had a protein stability index of 0.665 ± 0.024.
Next, AYCRRPALPWRG: 0.714 ± 0.028.
Sequence AYEGVYAVVANV showed a protein stability index of 0.616 ± 0.014.
The sequence AYICLSGLGRCI yielded a protein stability index of 0.672 ± 0.03.
Regarding AYPWWLILSDAI, the protein stability index came out at 0.759 ± 0.016.
AYWWSLGRALGC: the protein stability index was found to be 0.745 ± 0.065.
For CALWHLLPVNLH, the protein stability index stood at 0.645 ± 0.059.
Turning to CAPPSSPCLCSI, the protein stability index amounted to 0.701 ± 0.064.
On to CASLATAPPTSQ, for which the protein stability index was found to be 0.728 ± 0.026.
In the case of CAWLCVRFAGVG, the protein stability index stood at 0.668 ± 0.062.
On to CCGHGVFSFFSL, for which the protein stability index turned out to be 0.749 ± 0.023.
With CCLASVSADKVV, the protein stability index is 0.703 ± 0.025.
The sequence CCLGCFLKHGIV registered a protein stability index of 0.652 ± 0.035.
CCSIVRSGAGDK returned a protein stability index of 0.748 ± 0.012.
CCSSCFVLSKAA: the protein stability index is 0.6463 ± 0.0031.
With CDCDESYFNPLG, the protein stability index turned out to be 0.666 ± 0.037.
On to CDLISNFFLIGV, for which the protein stability index was 0.633 ± 0.03.
CDSVATFCLRLF: the protein stability index stood at 0.6234 ± 0.0031.
Consider CEHGGWYVGFCS, for which the protein stability index amounted to 0.7 ± 0.008.
The sequence CERIGIRHLIKW came in with a protein stability index of 0.657 ± 0.036.
As to CFCSWFWDLVLC, the protein stability index turned out to be 0.628 ± 0.0076.
Next, CFDALLPEELSS: 0.696 ± 0.044.
With CFLPLFFFRFVE, the protein stability index is 0.609 ± 0.027.
Next, CFVDHCPIAHIY: 0.608 ± 0.022; CGCCTSSPFVSQ: 0.687 ± 0.061; CGGDGRTPTTHT: 0.665 ± 0.019.
CGGGCVVGAGWG: the protein stability index is 0.727 ± 0.044.
Sequence CGLMIFSRSYRF showed a protein stability index of 0.704 ± 0.033.
Regarding CGMIQDKCEGEI, the protein stability index came to 0.738 ± 0.049.
In turn, CGRITADKRILL came in with a protein stability index of 0.65 ± 0.098.
Next, CGRRGYIVRTFL: 0.658 ± 0.071; CGSWVAVESLEL: 0.679 ± 0.042; CGVGEGGLLGWL: 0.745 ± 0.072.
CGVGWGMVEGWR returned a protein stability index of 0.691 ± 0.016.
Take CGWFSVGLMVGG: the protein stability index was determined as 0.485 ± 0.057.
CHSLEDRPDDPC: the protein stability index worked out at 0.758 ± 0.1.
CIGVGTVRGSHG had a protein stability index of 0.673 ± 0.067.
Next, CIKQTNNQNKSN: 0.697 ± 0.045; CILYTGYDLGNV: 0.7 ± 0.021.
Sequence CIPVTGLHFRVI returned a protein stability index of 0.6136 ± 0.0035.
Next, CITKERVMVKFV: 0.538 ± 0.012; CITRIGSYGEET: 0.679 ± 0.057; CLCHAPLPLAAP: 0.642 ± 0.013.
Sequence CLFLRLSPSCSR had a protein stability index of 0.686 ± 0.04.
With CLGCAFPPHSLY, the protein stability index was found to be 0.646 ± 0.046.
Next, CLGGPAAWPLFS: 0.6778 ± 0.0025; CLLAPSSLASPI: 0.66 ± 0.043; CLLFSRQLLESP: 0.678 ± 0.077.
On to CLLPFCFLSHIF, for which the protein stability index is 0.585 ± 0.04.
Next, CLLRPTPRPATP: 0.779 ± 0.036.
Next, CLLYPPYHFYIH: 0.567 ± 0.0066.
CLMGTIETRLRC displayed a protein stability index of 0.637 ± 0.049.
Next, CLPQCLNPDFAE: 0.645 ± 0.0066; CLRGGGAGDGAS: 0.673 ± 0.048.
Next, CLRGTYPRLPLT: 0.6838 ± 0.0035.
For the sequence CLRRRSLSPLFI, the protein stability index is 0.7252 ± 0.0057.
Sequence CLSFCFGISVFD displayed a protein stability index of 0.616 ± 0.017.
In turn, CLSSVSLSNVSV yielded a protein stability index of 0.669 ± 0.068.
The sequence CLVKSNVCVAPG gave a protein stability index of 0.643 ± 0.12.
With CMRVHPGHPFPY, the protein stability index worked out at 0.633 ± 0.06.
CNEKVNRNGYKR displayed a protein stability index of 0.69 ± 0.064.
As to CNIASTLEKTCP, the protein stability index came to 0.7043 ± 0.0062.
CNNRNKRMRKYI: the protein stability index amounted to 0.669 ± 0.031.
Turning to CPFLFSLFPHSF, the protein stability index was 0.6646 ± 0.0033.
The sequence CPFTDPRRQQSV gave a protein stability index of 0.646 ± 0.028.
Next, CPLGHLCVIRFG: 0.59 ± 0.012; CPPSPSPPLPPL: 0.712 ± 0.0085.
